In US6887705B1, “Tyrosine phosphorylated cleavage furrow-associated proteins (PSTPIPs)” (Genentech, Inc., priority 1997, dated 2005):
Like-named read-outs stand apart in the source and are kept apart here.

T1: interaction between PTP HSCF and PSTPIP (Mus musculus, UniProt P97814)
T1 construct: made in house; host or cells: GST fusion: E. coli DH5-alpha; PSTPIP: in vitro transcription/translation in rabbit reticulocyte lysate (Promega TnT)
T1 sequence (P97814 1-415): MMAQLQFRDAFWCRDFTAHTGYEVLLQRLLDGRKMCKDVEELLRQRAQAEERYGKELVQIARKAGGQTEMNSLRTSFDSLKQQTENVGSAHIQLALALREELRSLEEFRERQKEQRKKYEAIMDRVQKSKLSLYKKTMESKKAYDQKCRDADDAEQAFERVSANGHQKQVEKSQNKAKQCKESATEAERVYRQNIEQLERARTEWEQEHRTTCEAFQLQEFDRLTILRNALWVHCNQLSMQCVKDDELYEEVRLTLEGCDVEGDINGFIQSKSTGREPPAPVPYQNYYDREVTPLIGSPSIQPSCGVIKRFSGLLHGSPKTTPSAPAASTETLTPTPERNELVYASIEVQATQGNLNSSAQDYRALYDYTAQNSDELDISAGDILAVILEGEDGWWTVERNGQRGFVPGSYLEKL

T2: PSTPIP (Mus musculus, UniProt P97814)
T2 construct: containing the full-length cDNA for PSTPIP (amino acids 2-415) was subcloned into pGEX4T-2; made in house; host or cells: E. coli DH5-alpha
T2 sequence (P97814 2-415): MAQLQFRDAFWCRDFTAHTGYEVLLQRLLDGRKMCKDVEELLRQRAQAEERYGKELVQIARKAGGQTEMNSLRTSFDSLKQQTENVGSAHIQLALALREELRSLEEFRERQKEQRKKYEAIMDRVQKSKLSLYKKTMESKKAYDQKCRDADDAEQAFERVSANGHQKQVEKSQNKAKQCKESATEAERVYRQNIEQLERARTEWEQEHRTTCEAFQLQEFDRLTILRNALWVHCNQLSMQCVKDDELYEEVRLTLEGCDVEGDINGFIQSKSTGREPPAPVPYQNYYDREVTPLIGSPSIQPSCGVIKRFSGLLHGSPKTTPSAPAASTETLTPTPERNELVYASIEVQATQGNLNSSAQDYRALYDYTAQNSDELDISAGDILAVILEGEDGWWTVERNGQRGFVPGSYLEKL


Columns and labels:
[1] = molecular target: T1, interaction between PTP HSCF and PSTPIP; conditions: previous studies (Spencer et al. 1997); cited from earlier work
[2] = system: PST PIP - PTP HSCF association; assay: Coprecipitation of PST PIP and PTP HSCF from co-transfected COS cells; type: cell-based
Protocol: COS-7 cells were transfected by electroporation. Briefly, 1.5×10^6 COS-7 cells were mixed with 24 μg total DNA in PBS and electroporated at 960 μF, […] (Bio-Rad™ Gene Pulsar™). Following electroporation, cells were seeded in 10 cm dishes and incubated for 3 days. 10-cm dishes of transfected COS cells were washed twice with ice-cold PBS, and lysed in 1 ml of M-RIPA (50 mM Tris 7.4, 1% NP40, 0.25% DOC, 150 mM NaCl, 1 mM sodium ortho-vanadate, 1 mM NaF plus Complete™ Protease Inhibitors (Boehringer Mannheim)). Lysates were incubated for 15 minutes with 100 μl UltraLink Immobilized Protein A/G™ (Pierce) at 4° C., followed by centrifugation for 5 minutes. Supernatants were collected and stored at −70° C. or directly immunoprecipitated. 5 μg of M2 or 12CA5 was added to 500 μl of lysate and incubated overnight at 4° C. Ultralink Protein A/G™ was added and incubation continued for 2 hours at 4° C. The immune complexes were washed 3 times with M-RIPA. The proteins were subjected to SDS-PAGE and transferred to nitrocellulose in 1X Transfer Buffer™ (Novex). Immunoblots were blocked overnight at 4° C. in 3% milk/PBS. To detect Flag-tagged PIP, blots were incubated with 10 μg/ml Bio-M2 (Biotinylated anti-FLAG monoclonal Ab, KODAK) followed by incubation in 10 μg/ml streptavidin-HRP (UBI). To detect HA-tagged PTPhscf, blots were incubated in anti-(HA)-peroxidase (Boehringer Mannheim) as per manufacturer's instructions. To detect phosphotyrosine, blots were incubated in HRP-conjugated 4G10 (anti-phosphotyrosine monoclonal, UBI) as per manufacture's instructions.
In vitro binding analyses between various PTP HSCF and PST PIP constructs were performed as previously described (Spencer et al, (1997), supra). Briefly, plasmids were transcribed and translated in vitro using the TnT Rabbit Reticulocyte Lysate System (Promega). Samples were diluted in 50 mM HEPES, pH 7.2, 1% triton X-100, 10% glycerol, 100 mM NaCl, and 2 μg/ml each of leupeptin, pepstatin, aprotinin and PMSF (lysis buffer). Samples were than reacted with GST fusion proteins at various concentrations, and the bound proteins were centrifuged using glutathione-sepharose beads and analyzed on SDS polyacrylamide gels. C-terminally-derived peptide inhibition studies were performed by incubating the GST fusion protein binding reactions in the presence of 10 μg/ml of the indicated peptides. Peptides were produced by FMOC-protected amino acids as previously described (Spencer et al, (1997), supra). In vivo interactions between various forms of PTP HSCF and PST PIP were also performed as previously described (Spencer et al, (1997), supra). Briefly, COS cells were transfected with various constructs, and after 48 hours, lysates were prepared and immunoprecipitated with antibodies to either the FLAG epitope contained at the C-terminus of PST PIP or an HA epitope contained at the N-terminus of PTP HSCF. The resultant blots were probed with anti-FLAG to detect PST PIP, anti-HA to detect PTP HSCF or anti-phosphotyrosine to detect levels of this modified amino acid in each protein.

PSTPIP = molecular target: T2, PSTPIP; assay: In vitro GST pull-down binding of PTP HSCF forms to GST PSTPIP; design: species or system murine; conditions: 1 or 10 μg/ml GST PST PIP
Protocol: The binding was carried out according to the method of Wong and Johnson (Wong et al., J. Biol. Chem. 271(35):20981-20984 (1996)). Briefly, 1 μg of plasmid with either the PSTPIP protein or PTP HSCF under the control of the Sp6 promoter was in vitro transcribed/translated using the Promega™ TnT Rabbit Reticulocyte™ system. Samples were diluted in 50 mM HEPES, pH 7.2, 1% triton X 100, 10% glycerol, 100 mM NaCl, 5 mM EDTA and 2 μg/ml each of leupeptin, pepstatin, aprotinin, and PMSF. […] This was reacted for 1 hour at 4° C. and then the resin washed 6 times in HEPES/Triton binding buffer before SDS gel electrophoresis. The peptides were synthesized on an automated Milligen 9050 Peptide Synthesizer using standard solid phase chemistry with FMOC protected amino acids on a p-alkoxybenzyl alcohol resin. Dried peptides were re-suspended in the HEPES/Triton Binding buffer at a concentration of 10 mg/ml. Peptide inhibition was performed by adding the peptide first to the in vitro translation product and then the GST-fusion followed by the GSH-Sepharose. […]
In vitro binding analyses between various PTP HSCF and PST PIP constructs were performed as previously described (Spencer et al, (1997), supra). […] Samples were than reacted with GST fusion proteins at various concentrations, and the bound proteins were centrifuged using glutathione-sepharose beads and analyzed on SDS polyacrylamide gels. […]

Row | Molecule | blocking of the PTP HSCF-PST PIP interaction by C-terminal peptides of related PTPs [1] | in vivo association (coprecipitation) of PST PIP and PTP HSCF [2] | in vivo association (coprecipitation) of PST PIP and PTP HSCF ([2]; listed as PTP HSCF444+450) | binding of in vitro translated PTP HSCF forms to GST PSTPIP (PSTPIP)
1 | GFGNRFSKPKGPRNPPSAW [PXXP-PEP] | effectively block the interaction |  |  | 
2 | GFGNRCGKPKGPRDPPSEWT [PXXP-PEST] | effectively block the interaction |  |  | 
3 | R444+W450: PTP HSCF double mutant with R444 and W450 mutated to alanine (protein, left off: small tags and cut ends, PTP HSCF double mutant with R444 and W450 mutated to alanine) MSRHTDLVRSFLEQLEARDYREGAILAREFSDIKARSVAWKSEGVCSTKAGSRLGNTNKNRYKDVVAYDETRVILSLLQEEGHGDYINANFIRGIDGSQAYIATQGPLPHTLLDFWRLVWEFGVKVILMACQETENGRRKCERYWAREQEPLKAGPFCITLTKETTLNADITLRTLQVTFQKEFRSVHQLQYMSWPDHGVPSSSDHILTMVEEARCLQGLGPGPLCVHCSAGCGRTGVLCAVDYVRQLLLTQTIPPNFSLFQVVLEMRKQRPAAVQTEEQYRFLYHTVAQLFSRTLQDTSPHYQNLKENCAPICKEAFSLRTSSALPATSRPPGGVLRSISVPAPPTLPMADTYAVVQKRGASAGTGPGPRAPTSTDTPIYSQVAPRAQRPVAHTEDAQGTTALRRVPADQNSSGPDAYEEVTDGAQTGGLGFNLRIGRPKGPADPPAEATRV |  | as poor at interacting in vivo with PST PIP as the mutant which was missing the entire C-terminal proline rich domain | complete loss of coprecipitation | stronger inhibitory effect on binding to PST PIP
